Data published in publication PMC9651861 (Science Advances, 2022).

Legend:
Settings in all cases: both partners purified
human serum albumin [1] = molecular target: T1, human serum albumin (Homo sapiens, UniProt P02768); assay: BLI
T1 construct: also called HSA

human serum albumin [2] = molecular target: T1, human serum albumin; assay: BLI; remark: listed apart in the source
human serum albumin [3] = molecular target: T1, human serum albumin; assay: BLI; HSA (4 μM) loaded on APS sensors; DesAbs at 1 μM, 500 nM and 250 nM (Nb.B201 at 800 and 400 nM); 170 mM NaCl, 50 mM tris-HCl, 10 mM MgCl2 pH 7.4; 25°C; global fit, Kd = Koff/Kon
[4] = molecular target: T2, SARS-CoV-2 Spike Glycoprotein (S1) His-Tagged RBD (SARS-CoV-2, UniProt P0DTC2); assay: BLI
T2 construct: source: bought: The Native Antigen Company (REC31849), produced in HEK293 cells

human serum albumin [5] = molecular target: T1, human serum albumin; assay: BLI; HSA (4 μM) loaded on APS sensors; DesAbs at 1 μM, 500 nM and 250 nM (Nb.B201 at 800 and 400 nM); 170 mM NaCl, 50 mM tris-HCl, 10 mM MgCl2 pH 7.4; 25°C; global fit, Kd = Koff/Kon; remark: listed apart in the source
[6] = molecular target: pancreatic bovine trypsin (Bos taurus, UniProt P00760); assay: BLI; His-tagged DesAb (7.5 μM) loaded to saturation on Ni-NTA sensors, trypsin in solution; 170 mM NaCl, 50 mM tris-HCl, 10 mM MgCl2 pH 7.4; 25°C
Chain of pancreatic bovine trypsin (P00760 24-246): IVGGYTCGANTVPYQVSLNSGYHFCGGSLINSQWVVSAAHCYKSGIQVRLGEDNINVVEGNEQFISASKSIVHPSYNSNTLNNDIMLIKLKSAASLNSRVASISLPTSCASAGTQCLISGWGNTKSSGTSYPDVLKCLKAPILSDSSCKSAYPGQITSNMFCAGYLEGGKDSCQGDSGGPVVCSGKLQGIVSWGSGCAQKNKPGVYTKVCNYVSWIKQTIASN

[7] = molecular target: T2, SARS-CoV-2 Spike Glycoprotein (S1) …; assay: BLI; remark: listed apart in the source

B1: DesAb-HSA-P1 (VHH)
VHH: EVQLEESGGGLVQPGGSLRLSCAASGFNIKDTYIGWVRQAPGKGEEWVASIYPTSGYTRYADSVKGRFTISADTSKNTAYLQMNSLRAEDTAVYYCAAGSIQKSLQTAESILEEFDYWGQGTLVTVSS
In the case of B1, the Kd (human serum albumin [1]) is reported as 120 nM.

B2: Nb.B201 (VHH)
VHH: QVQLQESGGGLVQAGGSLRLSCAASGYISDAYYMGWYRQAPGKEREFVATITHGTNTYYADSVKGRFTISRDNAKNTVYLQMNSLKPEDTAVYYCAVLETRSYSFRYWGQGTQVTVSS
notes: also called yeast display-derived anti-HSA nanobody
B2: binds (human serum albumin [2]).

B3: DesAb-HSA-P2 (VHH)
VHH: EVQLEESGGGLVQPGGSLRLSCAASGFNIKDTYIGWVRQAPGKGEEWVASIYPTSGYTRYADSVKGRFTISADTSKNTAYLQMNSLRAEDTAVYYCAAGSAQAGNAEEAEEEFDYWGQGTLVTVSS
B3 gave a Kd (human serum albumin [3]) of 380 nM.

B4: DesAb-HSA-D3 (VHH)
VHH: EVQLQESGGGLVQAGGSLRLSCAASGELYALISMGWFRQAPGKEREFVAAISRNGDNTYYTDSVKGRFTISRDNAKNTVELQMNSLKPEDTAVYYCAADKFASPDGSVTIMTNEYDYWGQGTQVTVSD
B4 was tested, and the Kd (human serum albumin [1]) was 180 nM.

B5: DesAb-Tryp (VHH)
VHH: EVQLEESGGGLVQPGGSLRLSCAASGFNIKDTYIGWVRQAPGKGEEWVASIYPTSGYTRYADSVKGRFTISADTSKNTAYLQMNSLRAEDTAVYYCAAGSQSGYHFEEFDYWGQGTLVTVSS
In the case of B5, the binding result [4] is reported as “no binding (tested: 4 μM)”, the binding result (human serum albumin [5]) is reported as “no binding (tested: 1 μM)” and the Kd [6] is reported as 1800 nM.

B6: DesAb-RBD-C1 (VHH)
VHH: EVQLEESGGGLVQPGGSLRLSCAASGFNIKDTYIGWVRQAPGKGEEWVASIYPTSGYTRYADSVKGRFTISADTSKNTAYLQMNSLRAEDTAVYYCAAGSGSSATEVYEEFDYWGQGTLVTVSS
B6 was tested, and the Kd [7] was 210 nM.

B7: DesAb-RBD-C2 (VHH)
VHH: EVQLEESGGGLVQPGGSLRLSCAASGFNIKDTYIGWVRQAPGKGEEWVASIYPTSGYTRYADSVKGRFTISADTSKNTAYLQMNSLRAEDTAVYYCAAGSVVADLSVEEFDYWGQGTLVTVSS
Work on B7 yielded a Kd [7] of 130 nM.
